The values below come from patent US20210338751A1 (LUMEN BIOSCIENCE, published 2021).

Assay [1] deals with T1, recombinant HuNoV GII.10 P domain (Human Norovirus (HuNoV) GII.10).
T1 construct: domain: Protrusion (P) domain
Briefly: ELISA on recombinant HuNoV GII.10 P domain, Spirulina-expressed Ni-NTA purified protein after freeze-drying.

For assay [2], the target named is T2, recombinant HuNoV GII.2 P domain (Human Norovirus (HuNoV) GII.2).
T2 construct: domain: Protrusion (P) domain
Briefly: BLI, biotin tagged GII.2 P domain at 100 nM as antigen. (In BLI a coated tip is dipped into the sample, and binding shifts an interference pattern.)

Assay [3] concerns the target T1, recombinant HuNoV GII.10 P domain. Briefly: ELISA on recombinant HuNoV GII.10 P domain, Spirulina-expressed Ni-NTA purified protein stored at 4 C. Background: An ELISA detects its analyte on a solid surface through an enzyme-linked reagent.
Assay [4] concerns the target T3, recombinant HuNoV GI.1 P domain (Human Norovirus (HuNoV) GI.1).
T3 construct: domain: Protrusion (P) domain
As to the kind of experiment: ELISA on recombinant HuNoV GI.1 P domain, Spirulina-expressed Ni-NTA purified protein after freeze-drying.

In assay [5] the target is T4, GI.1 VLPs (human norovirus genotype GI.1).
T4 construct: virus-like particle
Briefly: blocking of GI.1 VLP binding to pig gastric mucin (HBGA).

Assay [6] deals with T3, recombinant HuNoV GI.1 P domain. Briefly: ELISA on recombinant GI.1 P domain.
For assay [7] the target is unchanged. As to the kind of experiment: ELISA on recombinant HuNoV GI.1 P domain, Spirulina-expressed Ni-NTA purified protein stored at 4 C.
The target in assay [8] is T5, Clostridium difficile toxin B (TcdB) (Clostridium difficile, UniProt P18177 2-2366).
T5 construct: also called TcdB toxin
As to the kind of experiment: method not stated.

The target of assay [9] is T5, Clostridium difficile toxin B (TcdB). Briefly: assay not given; unlabelled list of VHH names and values at the right of the sheet, the same values stand under KD in Table 6 of the text, which prints the unit of 5D as mM.
The target is the same in assay [10]. As to the kind of experiment: cell-based or functional assay.

In general, EC50 refers to the concentration that produces a half-maximal response. By Kd is commonly meant the free concentration of one partner at which half of the binding sites on the other are occupied at equilibrium, for simple one-to-one binding. For orientation: kon means the second-order rate constant of association.

B1: Nano26-MBP (VHH, not shown: large carriers)
VHH: QVQLQESGGGLVQPGGSLRLSCTAPRIIFFMYDVGWYRQAPEKQRELVAQINSDVSTKYADSVKGRFTISRDNAKRTVYLQMNDLKPEDAAVYYCNVRRASADYWGQGTQVTVSS
notes: also called SP834
Take B1: in assay [1], the EC50 was 2.29 nM. For the same molecule, in assay [2], the Kd came to 21.9 nM and the kon stood at 172000 M⁻¹ s⁻¹. Also, the EC50 in assay [3] came out at 2.75 nM.

B2: Nano94-TxnA (VHH)
VHH: QVQLQESGGGLVQAGGSLRLSCAASGRMFSINSMGWYRQAPGKERELVATISEAGTTTYADSVRGRFTIARDNAKNTVYLQMNSLNPEDTAVYYCNAYIQLDSTIWFRAYWGQGTQVTVSS
notes: also called SP835
Consider B2, for which the EC50 in [4] amounted to 36.7 nM; in assay [6], 50.1 nM; in [7], 27.3 nM. In assay [5], the “IC50 (read off the curve)” value is about 2 µg/mL.

B3: Nano94-MBP (VHH)
VHH: B2 VHH
notes: also called SP836
As to B3, the “IC50 (read off the curve)” value in assay [5] was about 2 µg/mL.

B4: anti-TcdB VHH 5D (VHH)
VHH: QVQLVESGGGLVQPGGSLRLSCEASGFTLDYYGIGWFRQPPGKEREAVSYISASARTILYADSVKGRFTISRDNAKNAVYLQMNSLKREDTAVYYCARRRFSASSVNRWLADDYDVWGRGTQVAVSS
In the case of B4, the Kd in [8] and in [9] was 0.65 nM each time.

B5: anti-TcdB VHH B12 (VHH)
VHH: VQLVESGGGLVQAGDSLTLSCAASESTFNTFSMAWFRQAPGKEREYVAAFSRSGGTTNYADSVKGRATISTDNAKNTVYLHMNSLKPEDTAVYFCAADRPAGRAYFQSRSYNYWGQGTQVTVSS
B5 gave a Kd in assay [8] of 0.07 nM.

B6: anti-TcdB VHH 7F (VHH)
VHH: QVQLVESGGGLVEAGGSLRLSCVVTGSSFSTSTMAWYRQPPGKQREWVASFTSGGAIKYTDSVKGRFTMSRDNAKKMTYLQMENLKPEDTAVYYCALFINAVSGSSWGRGTQVTVSS
In assay [8], B6 showed a Kd of 8.8 nM.

B7: anti-TcdB VHH C6 (VHH)
VHH: VQLVESGGGLVQAGESLRLSCVVSESIFRINTMGWYRQTPGKQREVVARITLRNSTTYADSVKGRFTISRDDAKNTLYLKMDSLKPEDTAVYYCHRYPLIFRNSPYWGQGTQVTVSS
In assay [8], B7 displayed a Kd of 0.89 nM.

B8: 5D+E3+7F (other)
VHH 5D: QVQLVESGGGLVQPGGSLRLSCEASGFTLDYYGIGWFRQPPGKEREAVSYISASARTILYADSVKGRFTISRDNAKNAVYLQMNSLKREDTAVYYCARRRFSASSVNRWLADDYDVWGRGTQVAVSSEPKTPKPQ
VHH E3: QVQLVESGGGLVQTGGSLRLSCASSGSIAGFETVTWSRQAPGKSLQWVASMTKTNNEIYSDSVKGRFIISRDNAKNTVYLQMNSLKPEDTGVYFCKGPELRGQGIQVTVSSEPKTPKPQ
VHH 7F: DVQLQASGGGLVQAGGSLRLSCVASARTFSSYAMGWFRQAPGKEREFVAAISWSGASTDYADSVKGRFTISRDNAKKTVYLQMNTLKPEDTAVYYCAAHHITPTGSYYYSEPLPVDMVYDYWGQGTQVTVSSEPKTKTTTSGR
Consider B8, for which, in [10], the “Adherence Score at TcdB 0.00001 ng/ml, VHH 100 ng/ml total; none: 7” value (“Adherence Score at TcdB 0.00001 ng/ml” for short) came out at 7; the “Adherence Score at TcdB 0.0001 ng/ml, VHH 100 ng/ml total; none: 7” value (shortened to “Adherence Score at TcdB 0.0001 ng/ml”) was 7; the “Adherence Score at TcdB 0.001 ng/ml, VHH 100 ng/ml total; none: 6” value (shortened to “Adherence Score at TcdB 0.001 ng/ml”) was determined as 7; the “Adherence Score at TcdB 0.01 ng/ml, VHH 100 ng/ml total; none: 5” value (from here on “Adherence Score at TcdB 0.01 ng/ml”) came out at 7. For the same molecule, in [10], the “Adherence Score at TcdB 0.1 ng/ml, VHH 100 ng/ml total; none: 2” value (“Adherence Score at TcdB 0.1 ng/ml” below) was 7; the “Adherence Score at TcdB 1 ng/ml, VHH 100 ng/ml total; none: 1” value (from here on “Adherence Score at TcdB 1 ng/ml”) was found to be 7; the “Adherence Score at TcdB 10 ng/ml, VHH 100 ng/ml total; none: 1” value (“Adherence Score at TcdB 10 ng/ml” for short) stood at 3.

B9: 5D+7F+5E (other)
VHH 5D: B8 VHH 5D
VHH 7F: B8 VHH 7F
VHH 5E: VQLVESGGGLVQAGGSLRLSCAASGLMFGAMTMGWYRQAPGKEREMVAYITAGGTESYSESVKGRFTISRINANNMVYLQMTNLKVEDTAVYYCNAHNFWRTSRNWGQGTQVTVSSEPKTPKP
On to B9, for which, in [10], the “Adherence Score at TcdB 0.00001 ng/ml” value worked out at 7; the “Adherence Score at TcdB 0.0001 ng/ml” value stood at 7; the “Adherence Score at TcdB 0.001 ng/ml” value came out at 7; the “Adherence Score at TcdB 0.01 ng/ml” value worked out at 7. Besides, in [10], the “Adherence Score at TcdB 0.1 ng/ml” value was found to be 7; the “Adherence Score at TcdB 1 ng/ml” value is 4; the “Adherence Score at TcdB 10 ng/ml” value amounted to 1.

B10: anti-TcdB VHH E3 (VHH)
VHH: B8 VHH E3
The molecule B10 had a Kd in [8] of 0.03 nM.

B11: E3+7F+2D (other)
VHH E3: B8 VHH E3
VHH 7F: B8 VHH 7F
VHH 2D: QVKLQQSGGGLVQAGGSLRLSCAASGTFSRYAMGWFRQAPGKEREFVAAINWTGGSTYYADSVKGRFTISGDNAKNTVYLQMNSLKPGDTAVYYCAAEVHPGDYGLTYMQSQYEYDYWGQGTQVTVSSEPKTPKPTTSGR
Take B11: in assay [10], the “Adherence Score at TcdB 0.00001 ng/ml” value came to 7; the “Adherence Score at TcdB 0.0001 ng/ml” value was 7; the “Adherence Score at TcdB 0.001 ng/ml” value is 7; the “Adherence Score at TcdB 0.01 ng/ml” value was found to be 7. In assay [10], the “Adherence Score at TcdB 0.1 ng/ml” value came out at 6; the “Adherence Score at TcdB 1 ng/ml” value stood at 4; the “Adherence Score at TcdB 10 ng/ml” value was determined as 1.

B12: 5D+E3+2D (other)
VHH 5D: B8 VHH 5D
VHH E3: B8 VHH E3
VHH 2D: B11 VHH 2D
With B12, in assay [10], the “Adherence Score at TcdB 0.00001 ng/ml” value is 7; the “Adherence Score at TcdB 0.0001 ng/ml” value amounted to 7; the “Adherence Score at TcdB 0.001 ng/ml” value came to 7; the “Adherence Score at TcdB 0.01 ng/ml” value came out at 7. Also, in [10], the “Adherence Score at TcdB 0.1 ng/ml” value worked out at 7; the “Adherence Score at TcdB 1 ng/ml” value stood at 6.1; the “Adherence Score at TcdB 10 ng/ml” value came out at 2.1.
